Legend:
ADRP [1] = details: cited from earlier work
ADRP [2] = experiment: Effect of expression of core proteins on the ability to detect ADRP in BHK C13 cells by confocal microscopy; format: cell-based, hamster; details: 20 hours after electroporation, anti-adipophilin antibody
Method: Cells were harvested 20 hours after electroporation and fixed with methanol. ADRP was detected with anti-adipophilin antibody and core protein with 308 antisera. Secondary antibodies were an anti-mouse IgG conjugated with FITC (for anti-adipophilin) and anti-rabbit IgG conjugated with Cy5 (for 308 antisera). Panels A, D, G, J, M and P are images of ADRP localization. Panels B, E, H, K, N, and Q are images of core distribution. Panels C, F, I, L, O and R show the merged images of core and ADRP distributions. Cells were electroporated with RNA from the following constructs: panels A, B and C, pSFV.1-195; panels D, E and F, pSFV.1-173; panels G, H and I, pSFV.1-169; panels J, K and L, pSFV.1-153; panels M, N and O, pSFV.Δ155-161; panels P, Q and R, pSFV.Δ161-166.
(§1) 0.8 ml of competent cells were mixed with in vitro transcribed RNA in an electroporation cuvette (0.4 cm gap) and pulsed twice at either 1.2 kV, 25 μF (for BHK C13 cells) or 0.36 kV, 960 μF (for MCA RH7777 cells). Between pulses, the cell/RNA suspension was gently mixed. Following electroporation, cells were diluted in growth medium and seeded onto either tissue culture dishes or coverslips in 24-well tissue culture plates and then incubated at 37° C.
(§2) Cells on 13 mm coverslips were fixed in either methanol at −20° C. or 4% paraformaldehyde, 0.1% Triton X-100 (prepared in PBS) at 4° C. for 30 mins. Following washing with PBS and blocking with PBS/CS (PBS containing 1% newborn calf serum), cells were incubated with primary antibody (diluted in PBS/CS at 1/200 for JM122 antibody, 1/1000 for 308 antisera and 1/100 for adipophilin antibody) for 2 hours at room temperature. Cells were washed extensively with PBS/CS and then incubated with conjugated secondary antibody (either anti-mouse or anti-rabbit IgG raised in goat) for 2 hours at room temperature. Cells were washed extensively in solutions of PBS/CS followed by PBS and finally H2O before mounting on slides using Citifluor. Samples were analyzed using a Leiss LSM confocal microscope.

ADRP [3] = experiment: Effect of expression of core protein on the abundance of ADRP (Western blot); format: cell-based, hamster; details: BHK C13 cells, extracts at various times following electroporation
Method: BHK C13 cells were electroporated with RNA from pSFV.1-195 and pSFV.1-153 and extracts were prepared at the times indicated following electroporation. Aliquots of cell extracts were electrophoresed on 10% polyacrylamide gels and then the proteins were transferred to nitrocellulose membrane for Western blot analysis. The upper panels show membranes probed with JM122 antibody while, in the lower panels, membranes were probed with anti-adipophilin antibody. Bands corresponding to core proteins, expressed from pSFV.1-195 and pSFV.1-153, and ADRP are arrowed.
To prepare extracts, electroporated cells were harvested by removing the growth medium and washing the cell monolayers with PBS. Cells were scraped into PBS and pelleted by centrifugation at 100 g for 5 mins at 4° C. The cell pellet was solubilized in sample buffer consisting of 160 mM Tris (pH 6.7), 2% SDS, 700 mM β-mercaptoethanol, 10% glycerol, 0.004% bromophenol blue.
For Western blot analysis, proteins were separated on polyacrylamide gels and transferred to nitrocellulose membrane using standard techniques. The nitrocellulose membrane was blocked in 3% gelatin, 20 mM Tris (pH 7.5), 500 mM NaCl for at least 6 hours at 37° C. prior to incubation with the primary antibody. […] Bound antibody was detected by enhanced chemiluminescence.

lipid droplets = experiment: Intracellular localization of core proteins and lipid droplets (indirect immunofluorescence, oil red O, confocal microscopy); format: cell-based, hamster; details: BHK C13 cells, 20 hours after electroporation, antibody JM122 and oil red O
Method: BHK C13 cells were harvested 20 hours after electroporation and fixed with 4% paraformaldehyde, 0.1% Triton X-100. Indirect immunofluorescence was performed with antibody JM122 and an anti-mouse secondary antibody conjugated with FITC. Lipid droplets were stained with oil red O. Panels A, D, G, J, M, P, S and V show the distributions of core protein. Panels B, E, H, K, N, Q, T and W show the locations of lipid droplets. Panels C, F, I, L, O, R, U and X are merged images of core protein and lipid droplets. Cells were electroporated with RNA from the following constructs: panels A, B and C, pSFV.1-195; panels D, E and F, pSFV.1-173; panels G, H and I, pSFV.1-169; panels J, K and L, pSFV.1-153; panels M, N and O, pSFV.Δ155-161; panels P, Q and R, pSFV.Δ161-166; panels S, T and U, pSFVA125-144; panels V, W and X, pSFV.1-124, 145-152.
as §1, §2
Following incubation with both antibodies and washing, lipid droplets were stained in paraformaldehyde-fixed cells by briefly rinsing coverslips in 60% propan-2-ol followed by incubation with 0.5 ml 60% propan-2-ol containing oil red O for 1.5-2 mins at room temperature. Coverslips were briefly rinsed with 60% propan-2-ol, washed with PBS and H2O and mounted as described above. The oil red O staining solution was prepared from a saturated stock of approximately 1% oil red O dissolved in propan-2-ol. Before staining, the stock was diluted with H2O and then filtered.
This conclusion was arrived at by combining the techniques of immune electron microscopy with the ability to stain lipid with osmium tetroxide. However, this method suffers from the disadvantages that it is time-consuming and osmium tetroxide can stain other biological molecules (e.g. proteins) in addition to lipid. Therefore, we developed a method for detecting proteins firstly by indirect immunofluorescence followed by staining of lipid droplets with the oil-soluble colorant oil red O. Combined with the method of confocal microscopy, it is possible to visualize the intracellular localizations of core protein and lipid droplets separately and together. Here, BHK C13 cells have been electroporated with pSFV.1-195 RNA and, following incubation at 37° C. for 20 hours, the cells have been examined by both indirect immunofluorescence and staining with oil red O. In panel A, the core protein produced by pSFV.1-195 is seen to locate to vesicular structures in the cytoplasm.

## CC(C)Cc1ccc(C(C)C(=O)O)cc1 (stereo not drawn) [ibuprofen]
ADRP [1]
  ADRP expression: stimulate ADRP expression

## COc1ccc2c(c1)c(CC(=O)O)c(C)n2C(=O)c1ccc(Cl)cc1 [indomethacin]
ADRP [1]
  ADRP expression: stimulate ADRP expression

B1: pSFV.1-195: SFV construct encoding the N-terminal 195 amino acids of HCV strain Glasgow (core protein) (protein)
chain: GACECPGRSRRPCTMSTNPKPQRKTKRNTNRRPQDVKFPGGGQIVGGVYLLPRRGPRLGVRATRKTSERSQPRGRRQPIPKARRPKGRNWAQPGYPWPLYGNEGCGWAGWLLSPSGSRPSWGPNDPRRRSRNLGKVIDTLTCGFVDLMGYIPLVGAPLRGAARALAHGVRVLEDGVNYATGNLPGCSFSIFLLAL
ADRP [2]
  ADRP detected by immunofluorescence in core-expressing cells: either lacked or contained barely detectable amounts of ADRP
ADRP [3]
  abundance of ADRP by Western blot: rapid reduction in ADRP levels to barely detectable quantities
Lipid droplets
  intracellular localization of core protein relative to lipid droplets: sited around the lipid droplets

B2: pSFV.Δ155-161: construct lacking the sequences encoding residues 155 to 161 of the core protein of HCV strain Glasgow (protein)
chain: GACECPGRSRRPCTMSTNPKPQRKTKRNTNRRPQDVKFPGGGQIVGGVYLLPRRGPRLGVRATRKTSERSQPRGRRQPIPKARRPKGRNWAQPGYPWPLYGNEGCGWAGWLLSPSGSRPSWGPNDPRRRSRNLGKVIDTLTCGFVDLMGYIPLVARALAHGVRVLEDGVNYATGNLPGCSFSIFLLAL
ADRP [2]
  ADRP detected by immunofluorescence in core-expressing cells: barely detectable
Lipid droplets
  intracellular localization of core protein relative to lipid droplets: did not affect lipid droplet association

B3: pSFV.1-169: SFV construct encoding amino acid residues 1-169 of HCV strain Glasgow core (protein)
chain: GACECPGRSRRPCTMSTNPKPQRKTKRNTNRRPQDVKFPGGGQIVGGVYLLPRRGPRLGVRATRKTSERSQPRGRRQPIPKARRPKGRNWAQPGYPWPLYGNEGCGWAGWLLSPSGSRPSWGPNDPRRRSRNLGKVIDTLTCGFVDLMGYIPLVGAPLRGAARALAHGV
ADRP [2]
  ADRP detected by immunofluorescence in core-expressing cells: barely detectable
Lipid droplets
  intracellular localization of core protein relative to lipid droplets: continue to locate to lipid droplets

B4: pSFV.Δ161-166: construct lacking the sequences encoding residues 161 to 166 of the core protein of HCV strain Glasgow (protein)
chain: GACECPGRSRRPCTMSTNPKPQRKTKRNTNRRPQDVKFPGGGQIVGGVYLLPRRGPRLGVRATRKTSERSQPRGRRQPIPKARRPKGRNWAQPGYPWPLYGNEGCGWAGWLLSPSGSRPSWGPNDPRRRSRNLGKVIDTLTCGFVDLMGYIPLVGAPLRGHGVRVLEDGVNYATGNLPGCSFSIFLLAL
ADRP [2]
  ADRP detected by immunofluorescence in core-expressing cells: readily found
Lipid droplets
  intracellular localization of core protein relative to lipid droplets: diffuse cytoplasmic pattern

B5: pSFV.1-153: SFV construct encoding amino acid residues 1-153 of HCV strain Glasgow core (protein)
chain: GACECPGRSRRPCTMSTNPKPQRKTKRNTNRRPQDVKFPGGGQIVGGVYLLPRRGPRLGVRATRKTSERSQPRGRRQPIPKARRPKGRNWAQPGYPWPLYGNEGCGWAGWLLSPSGSRPSWGPNDPRRRSRNLGKVIDTLTCGFVDLMGYIPL
ADRP [2]
  ADRP detected by immunofluorescence in core-expressing cells: readily found
ADRP [3]
  abundance of ADRP by Western blot: no change in the abundance of ADRP
Lipid droplets
  intracellular localization of core protein relative to lipid droplets: do not associate with lipid droplets

B6: pSFV.1-124,145-152: core variant truncated at residue 152 and lacking amino acids 125 to 144 (protein)
chain: GACECPGRSRRPCTMSTNPKPQRKTKRNTNRRPQDVKFPGGGQIVGGVYLLPRRGPRLGVRATRKTSERSQPRGRRQPIPKARRPKGRNWAQPGYPWPLYGNEGCGWAGWLLSPSGSRPSWGPNVDLMGYIP
Lipid droplets
  intracellular localization of core protein relative to lipid droplets: diffuse fluorescence

B7: pSFV.Δ125-144: construct expressing a core variant in which residues 125 to 144 had been deleted (protein)
chain: GACECPGRSRRPCTMSTNPKPQRKTKRNTNRRPQDVKFPGGGQIVGGVYLLPRRGPRLGVRATRKTSERSQPRGRRQPIPKARRPKGRNWAQPGYPWPLYGNEGCGWAGWLLSPSGSRPSWGPNVDLMGYIPLVGAPLRGAARALAHGVRVLEDGVNYATGNLPGCSFSIFLLAL
Lipid droplets
  intracellular localization of core protein relative to lipid droplets: diffuse fluorescence

B8: pSFV.1-173: SFV construct encoding amino acid residues 1-173 of HCV strain Glasgow core (protein)
chain: GACECPGRSRRPCTMSTNPKPQRKTKRNTNRRPQDVKFPGGGQIVGGVYLLPRRGPRLGVRATRKTSERSQPRGRRQPIPKARRPKGRNWAQPGYPWPLYGNEGCGWAGWLLSPSGSRPSWGPNDPRRRSRNLGKVIDTLTCGFVDLMGYIPLVGAPLRGAARALAHGVRVLE
ADRP [2]
  ADRP detected by immunofluorescence in core-expressing cells: barely detectable
Lipid droplets
  intracellular localization of core protein relative to lipid droplets: continue to locate to lipid droplets
